Where two headings read alike, the source gives them in different places. Values belong to the binder of their own block, whether it stands above or below them. Numbered stars: 1 amine (or outer) side, 2 acyl side, 3 side chain; on linkers, the order of the positions; unused ones are H or OH. Bridge positions count the residues as written; N and C are the ends. Square brackets hold non-standard residues; d marks the D form. Ends that are not written are not given here. Tyr(2-NO2) = 2-nitro-Tyr, O=C([C@H](Cc1ccc(O[*:3])cc1[N+](=O)[O-])N[*:1])[*:2]; Phe(4-NO2) = N[C@@H](Cc1ccc([N+](=O)[O-])cc1)C(=O)O; Phe(F5) = N[C@@H](Cc1c(F)c(F)c(F)c(F)c1F)C(=O)O; Phe(4-NH2) = Nc1ccc(C[C@H](N)C(=O)O)cc1; Phe(4-F) = N[C@@H](Cc1ccc(F)cc1)C(=O)O; Phe(2-Me) = Cc1ccccc1C[C@H](N)C(=O)O; Pen = CC(C)(S)[C@H](N)C(=O)O; Sar = CNCC(=O)O
Columns and labels:
[1] = target: T1, soluble human FcRn (shFcRn) (human, UniProt P55899 24-297; P61769 21-119); assay: SPR pH 6; 4-amino-Phe in place of Tyr; Pen backbone
T1 construct: Biotinylated for the ELISA, amine-coupled to a CM5 chip for SPR; also called biotinylated shFcRn
Procedure: (§1) The following steps were performed to cross-link soluble human or cynomolgus FcRn to the dextran surface of a CM5 sensor chip (Biacore AB, Uppsala, Sweden) by an amine coupling reaction involving 1-ethyl-(3-dimethylaminopropyl)-carbodiimide hydrochloride (EDC) (Biacore AB, Uppsala, Sweden) and N-hydroxysuccinimide (NHS) (Biacore AB, Uppsala, Sweden) as recommended by Biacore (BIAapplications Handbook, version AB, section 4.2, Biacore AB, Uppsala, Sweden). […] Residual sites on the FcRn flow cell were blocked with 1 M ethanolamine hydrochloride pH 8.5 (Biacore AB, Uppsala, Sweden). A control flow cell was blocked with ethanolamine for reference subtraction. For analysis of the monomeric peptides, FcRn was coated to a final density of 4000-5000 response units (RU). For analysis of the peptide dimers, FcRn was coated to a density of 2000-2500 RU. All SPR measurements were performed using a BIACORE 3000 Instrument (Biacore AB Uppsala, Sweden). For measurements done at either pH 6 or pH 7.4, experiments were performed in 50 mM phosphate, 100 mM sodium chloride, 0.01% surfactant P20 (Biacore AB, Uppsala, Sweden).
(§2) Ten, 2-fold dilutions of the peptide were injected over the FcRn-CM5 chip at a rate of 20 μl/min for 2 min. The peptide was dissociated from the chip for 2.5 minutes with buffer. […] Sensorgrams were generated and analyzed using BiaEval software version 3.1 (Biacore AB, Uppsala, Sweden). […]

[2] = target: T1, soluble human FcRn (shFcRn); assay: IgG competition ELISA
Procedure: (§3) The wells were coated with 100 μl/well of 1 μg/ml biotinylated-shFcRn in Buffer A. The plate was sealed and incubated at 37° C. for 2 hours. Afterwards, the plate was washed with 200 μl/well of Buffer B (Buffer B: 100 mM MES pH 6, 150 mM NaCl, 0.5% BSA IgG-free (Jackson ImmunoResearch, West Grove, Pa.), 0.05% Tween-20). […] To allow for mixing, the plate was rocked for 2 minutes, sealed and incubated at 37° C. for 2 hours. […] The plate was covered, incubated for 30 minutes at room temperature and washed 4 times with 200 μl/well of ice-cold buffer B. SureBlue TMB substrate solution (100 μl/well, KPL, Gaithersburg, Md.) was added and the plate was allowed to incubate at room temperature until color developed, which took 5 to 10 minutes. Once color developed, 100 μl/well of TMB stop solution (KPL, Gaithersburg, Md.) was added and the absorbance was measured at 450 nm. The data was plotted as absorbance vs. peptide concentration to derive the inhibitory concentration 50% (IC₅₀) values.

[3] = target: T1, soluble human FcRn (shFcRn); assay: SPR pH 6; Peptide No. 189: Pen, lower-case a, Sar (QRF-Pen-TGHF-a-Sar-LYPCNGP)
Procedure: as §1, §2

[4] = target: T1, soluble human FcRn (shFcRn); assay: IgG competition ELISA; remark: listed apart in the source
Procedure: as §3

[5] = target: T1, soluble human FcRn (shFcRn); assay: SPR pH 6
Procedure: as §1
(§4) Ten, 2-fold dilutions of the peptide were injected over the FcRn-CM5 chip at a rate of 20 μl/min for 2 min. The peptide was dissociated from the chip for 2.5 minutes with buffer. Any remaining peptide was removed from the chip with a 30 second injection of HBS-P buffer (Biacore AB, Uppsala, Sweden) at a rate of 30 μl/min. Sensorgrams were generated and analyzed using BiaEval software version 3.1 (Biacore AB, Uppsala, Sweden). The equilibrium RU observed for each injection was plotted against concentration. The equilibrium KD values were derived by analysis of the plots using the steady state affinity model included in the BiaEval software.

[6] = target: T1, soluble human FcRn (shFcRn); assay: SPR pH 7.4
Procedure: as §1, §2

[7] = target: T1, soluble human FcRn (shFcRn); assay: SPR pH 6; remark: listed apart in the source
Procedure: as §1, §4

[8] = target: T1, soluble human FcRn (shFcRn); assay: SPR pH 7.4; remark: listed apart in the source
Procedure: as §1, §2

[9] = target: T1, soluble human FcRn (shFcRn); assay: SPR pH 7.4; remark: listed apart in the source
Procedure: as §1, §2

[10] = target: T1, soluble human FcRn (shFcRn); assay: SPR pH 6; 4-nitro-Phe in place of Tyr; Pen backbone
Procedure: as §1, §2

[11] = target: T1, soluble human FcRn (shFcRn); assay: SPR pH 6; pentafluoroPhe in place of Tyr; Pen backbone
Procedure: as §1, §2

[12] = target: T1, soluble human FcRn (shFcRn); assay: SPR pH 6; Peptide No. 87: Pen, 2-nitro-Tyr for Tyr (QRF-Pen-TGHFGGL-(2-nitro-Tyr)-PCNGP)
Procedure: as §1, §2

[13] = target: T1, soluble human FcRn (shFcRn); assay: SPR pH 6; Peptide No. 94: Pen, PheNHAc for Phe (QRF-Pen-TGH-(PheNHAc)-…)
Procedure: as §1, §2

[14] = target: T1, soluble human FcRn (shFcRn); assay: SPR pH 6; Peptide No. 88: Pen, 2-MePhe for Phe (QRF-Pen-TGH-(2-MePhe)-…)
Procedure: as §1, §2

[15] = target: T1, soluble human FcRn (shFcRn); assay: IgG competition ELISA; remark: listed apart in the source
Procedure: as §3

Kd [3]: 0.19 µM
B2: Peptide No. 189 (peptide)
peptide: QRF[Pen]TGHF[dA][Sar]LYPCNGP-NH2
modifications: disulfide 4-14; N-terminus assumed
SMILES: CC(C)C[C@@H]1NC(=O)CN(C)C(=O)[C@@H](C)NC(=O)[C@H](Cc2ccccc2)NC(=O)[C@H](Cc2c[nH]cn2)NC(=O)CNC(=O)[C@H]([C@@H](C)O)NC(=O)[C@@H](NC(=O)[C@H](Cc2ccccc2)NC(=O)[C@H](CCCNC(=N)N)NC(=O)[C@@H](N)CCC(N)=O)C(C)(C)SSC[C@@H](C(=O)N[C@@H](CC(N)=O)C(=O)NCC(=O)N2CCC[C@H]2C(N)=O)NC(=O)[C@@H]2CCCN2C(=O)[C@H](Cc2ccc(O)cc2)NC1=O

IC50 [4]: 3 µM
Kd [5]: 0.15 µM
Kd [6]: 0.96 µM
B3: Peptide No. 296 (peptide)
peptide: QRF[Pen]HGHFGGLYPCNGP-NH2
modifications: disulfide 4-14; N-terminus assumed
SMILES: CC(C)C[C@@H]1NC(=O)CNC(=O)CNC(=O)[C@H](Cc2ccccc2)NC(=O)[C@H](Cc2c[nH]cn2)NC(=O)CNC(=O)[C@H](Cc2c[nH]cn2)NC(=O)[C@@H](NC(=O)[C@H](Cc2ccccc2)NC(=O)[C@H](CCCNC(=N)N)NC(=O)[C@@H](N)CCC(N)=O)C(C)(C)SSC[C@@H](C(=O)N[C@@H](CC(N)=O)C(=O)NCC(=O)N2CCC[C@H]2C(N)=O)NC(=O)[C@@H]2CCCN2C(=O)[C@H](Cc2ccc(O)cc2)NC1=O

Kd [9]: 24 µM
IC50 [2]: 26 µM
B5: Peptide No. 140 (peptide)
peptide: QRF[Pen]TGHFGGL[Phe(4-F)]PCNGP-NH2
modifications: disulfide 4-14; N-terminus assumed
SMILES: CC(C)C[C@@H]1NC(=O)CNC(=O)CNC(=O)[C@H](Cc2ccccc2)NC(=O)[C@H](Cc2c[nH]cn2)NC(=O)CNC(=O)[C@H]([C@@H](C)O)NC(=O)[C@@H](NC(=O)[C@H](Cc2ccccc2)NC(=O)[C@H](CCCNC(=N)N)NC(=O)[C@@H](N)CCC(N)=O)C(C)(C)SSC[C@@H](C(=O)N[C@@H](CC(N)=O)C(=O)NCC(=O)N2CCC[C@H]2C(N)=O)NC(=O)[C@@H]2CCCN2C(=O)[C@H](Cc2ccc(F)cc2)NC1=O

Kd [13]: 270 µM
B9: Peptide No. 94 (peptide)
peptide: QRF[Pen]TGH[Phe(4-NHAc)]GGLYPCNGP-NH2
modifications: disulfide 4-14

More lines, now with the values behind:

B1: Peptide No. 63 (peptide)
peptide: QRF[Pen]TGHFGGL[Phe(4-NH2)]PCNGP-NH2
modifications: disulfide 4-14; N-terminus assumed
SMILES: CC(C)C[C@@H]1NC(=O)CNC(=O)CNC(=O)[C@H](Cc2ccccc2)NC(=O)[C@H](Cc2c[nH]cn2)NC(=O)CNC(=O)[C@H]([C@@H](C)O)NC(=O)[C@@H](NC(=O)[C@H](Cc2ccccc2)NC(=O)[C@H](CCCNC(=N)N)NC(=O)[C@@H](N)CCC(N)=O)C(C)(C)SSC[C@@H](C(=O)N[C@@H](CC(N)=O)C(=O)NCC(=O)N2CCC[C@H]2C(N)=O)NC(=O)[C@@H]2CCCN2C(=O)[C@H](Cc2ccc(N)cc2)NC1=O
Kd [1]: 34 µM
IC50 [2]: 110 µM

B4: Peptide No. 84 (peptide)
peptide: QRF[Pen]TGHFGGHYPCNGP-NH2
modifications: disulfide 4-14; N-terminus assumed
SMILES: C[C@@H](O)[C@@H]1NC(=O)[C@@H](NC(=O)[C@H](Cc2ccccc2)NC(=O)[C@H](CCCNC(=N)N)NC(=O)[C@@H](N)CCC(N)=O)C(C)(C)SSC[C@@H](C(=O)N[C@@H](CC(N)=O)C(=O)NCC(=O)N2CCC[C@H]2C(N)=O)NC(=O)[C@@H]2CCCN2C(=O)[C@H](Cc2ccc(O)cc2)NC(=O)[C@H](Cc2c[nH]cn2)NC(=O)CNC(=O)CNC(=O)[C@H](Cc2ccccc2)NC(=O)[C@H](Cc2c[nH]cn2)NC(=O)CNC1=O
Kd [7]: 0.38 µM
Kd [8]: 2.5 µM

B6: Peptide No. 68 (peptide)
peptide: QRF[Pen]TGHFGGL[Phe(4-NO2)]PCNGP-NH2
modifications: disulfide 4-14; N-terminus assumed
SMILES: CC(C)C[C@@H]1NC(=O)CNC(=O)CNC(=O)[C@H](Cc2ccccc2)NC(=O)[C@H](Cc2c[nH]cn2)NC(=O)CNC(=O)[C@H]([C@@H](C)O)NC(=O)[C@@H](NC(=O)[C@H](Cc2ccccc2)NC(=O)[C@H](CCCNC(=N)N)NC(=O)[C@@H](N)CCC(N)=O)C(C)(C)SSC[C@@H](C(=O)N[C@@H](CC(N)=O)C(=O)NCC(=O)N2CCC[C@H]2C(N)=O)NC(=O)[C@@H]2CCCN2C(=O)[C@H](Cc2ccc([N+](=O)[O-])cc2)NC1=O
Kd [10]: 180 µM

B7: Peptide No. 65 (peptide)
peptide: QRF[Pen]TGHFGGL[Phe(F5)]PCNGP-NH2
modifications: disulfide 4-14; N-terminus assumed
SMILES: CC(C)C[C@@H]1NC(=O)CNC(=O)CNC(=O)[C@H](Cc2ccccc2)NC(=O)[C@H](Cc2c[nH]cn2)NC(=O)CNC(=O)[C@H]([C@@H](C)O)NC(=O)[C@@H](NC(=O)[C@H](Cc2ccccc2)NC(=O)[C@H](CCCNC(=N)N)NC(=O)[C@@H](N)CCC(N)=O)C(C)(C)SSC[C@@H](C(=O)N[C@@H](CC(N)=O)C(=O)NCC(=O)N2CCC[C@H]2C(N)=O)NC(=O)[C@@H]2CCCN2C(=O)[C@H](Cc2c(F)c(F)c(F)c(F)c2F)NC1=O
Kd [11]: 72 µM

B8: Peptide No. 87 (peptide)
peptide: QRF[Pen]TGHFGGL[Tyr(2-NO2)]PCNGP-NH2
modifications: disulfide 4-14; N-terminus assumed
SMILES: CC(C)C[C@@H]1NC(=O)CNC(=O)CNC(=O)[C@H](Cc2ccccc2)NC(=O)[C@H](Cc2c[nH]cn2)NC(=O)CNC(=O)[C@H]([C@@H](C)O)NC(=O)[C@@H](NC(=O)[C@H](Cc2ccccc2)NC(=O)[C@H](CCCNC(=N)N)NC(=O)[C@@H](N)CCC(N)=O)C(C)(C)SSC[C@@H](C(=O)N[C@@H](CC(N)=O)C(=O)NCC(=O)N2CCC[C@H]2C(N)=O)NC(=O)[C@@H]2CCCN2C(=O)[C@H](Cc2ccc(O)cc2[N+](=O)[O-])NC1=O
Kd [12]: 290 µM

B10: Peptide No. 88 (peptide)
peptide: QRF[Pen]TGH[Phe(2-Me)]GGLYPCNGP-NH2
modifications: disulfide 4-14; N-terminus assumed
SMILES: Cc1ccccc1C[C@@H]1NC(=O)[C@H](Cc2c[nH]cn2)NC(=O)CNC(=O)[C@H]([C@@H](C)O)NC(=O)[C@@H](NC(=O)[C@H](Cc2ccccc2)NC(=O)[C@H](CCCNC(=N)N)NC(=O)[C@@H](N)CCC(N)=O)C(C)(C)SSC[C@@H](C(=O)N[C@@H](CC(N)=O)C(=O)NCC(=O)N2CCC[C@H]2C(N)=O)NC(=O)[C@@H]2CCCN2C(=O)[C@H](Cc2ccc(O)cc2)NC(=O)[C@H](CC(C)C)NC(=O)CNC(=O)CNC1=O
Kd [14]: 0.2 µM
IC50 [15]: 1 µM

Source: patent US20110059889A1 (SYNTONIX PHARMACEUTICALS, published 2011)
